Patent US20250034271A1 (EUCURE BEIJING BIOPHARMA, published 2025)

B1: 7F10-mHvKv-IgG1-N297A (antibody, V domains shown)
VH: EVKLVESGGGLVQPGGSLKLSCATSGFTFSDYYMYWVRQTPEKRLEWVAYISYGGDSTFYPDTVRGRFTISRDNAKNALYLQMSRLKSEDTAVYYCARPAPSAHSYYLDYWGQGTTLTVSS
VL: DIQMTQTTSSLSASLGDRVTISCRASQDISNYLNWYQQKPDGTVKLLIYYTSRLHSGLPSRFSGSGSGTDYSLTISNLEQEDIATYYCQQGKTLPFTFASGTKLEIK
notes: Chimeric; human IgG1 constant regions with N297A mutation (EU numbering) in the Fc region
B2: 7F10-H2K3-IgG4 (antibody, V domains shown)
VH: EVQLVESGGGLVQPGGSLRLSCATSGFTFSDYYMYWVRQAPGKRLEWVAYISYGGDSTFYPDTVRGRFTISRDNAKNSLYLQMSSLKAEDTAVYYCARPAPSAHSYYLDYWGQGTLLTVSS
VL: DIQMTQSTSSLSASVGDRVTITCRASQDISNYLNWYQQKPGGAVKLLIYYTSRLHSGLPSRFSGSGSGTDYTLTISSLQQEDIATYYCQQGKTLPFTFASGTKLEIK
notes: Humanized
B3: 7F10-H1K3-IgG4 (antibody, V domains shown)
VH: EVQLVESGGGLVQPGGSLRLSCATSGFTFSDYYMYWVRQAPGKRLEWVAYISYGGDSTFYPDTVRGRFTISRDNAKNSLYLQMNSLRAEDTAVYYCARPAPSAHSYYLDYWGQGTLLTVSS
VL: DIQMTQSTSSLSASVGDRVTITCRASQDISNYLNWYQQKPGGAVKLLIYYTSRLHSGLPSRFSGSGSGTDYTLTISSLQQEDIATYYCQQGKTLPFTFASGTKLEIK
notes: Humanized
B4: 7F10-H1K1-IgG4 (antibody, V domains shown)
VH: EVQLVESGGGLVQPGGSLRLSCATSGFTFSDYYMYWVRQAPGKRLEWVAYISYGGDSTFYPDTVRGRFTISRDNAKNSLYLQMNSLRAEDTAVYYCARPAPSAHSYYLDYWGQGTLLTVSS
VL: DIQMTQSPSSLSASVGDRVTITCRASQDISNYLNWYQQKPGGAVKLLIYYTSRLHSGLPSRFSGSGSGTDFTFTISSLQPEDIATYYCQQGKTLPFTFASGTKLEIK
notes: Humanized
B5: 7F10-H1K2-IgG4 (antibody, V domains shown)
VH: EVQLVESGGGLVQPGGSLRLSCATSGFTFSDYYMYWVRQAPGKRLEWVAYISYGGDSTFYPDTVRGRFTISRDNAKNSLYLQMNSLRAEDTAVYYCARPAPSAHSYYLDYWGQGTLLTVSS
VL: DIQMTQSPSSLSASVGDRVTITCRASQDISNYLNWYQQKPGGAVKLLIYYTSRLHSGLPSRFSGSGSGTDYTFTISSLQPEDIATYYCQQGKTLPFTFASGTKLEIK
notes: Humanized
B6: 4H6-H2K2-IgG4 (antibody, V domains shown)
VH: EVQLQESGPGLVKPSQTLSLTCTVSGDSVSSGYWNWIRKHPGKKLEWIGFISYSGSTYYTPSLKSRVTISRDTSKNQFSLKLSSVTAADTAVYYCARFRRYDDGVDYWGQGTLVTVSS
VL: DIQMTQSPSAMSASVGDRVTITCRASHEISGYLSWIQQKPGGTIKRLINAASTLASGVPSRFSGSRSGTEFTLTISSLQPEDFADYYCLQYSSYPWTFGGGTKLEIK
notes: Humanized
B7: 4H6-H1K2-IgG4 (antibody, V domains shown)
VH: QVQLQESGPGLVKPSQTLSLTCTVSGDSVSSGYWNWIRKHPGKKLEWIGFISYSGSTYYTPSLKSRVTISRDTSKNQFSLKLSSVTAADTAVYYCARFRRYDDGVDYWGQGTLVTVSS
VL: DIQMTQSPSAMSASVGDRVTITCRASHEISGYLSWIQQKPGGTIKRLINAASTLASGVPSRFSGSRSGTEFTLTISSLQPEDFADYYCLQYSSYPWTFGGGTKLEIK
notes: Humanized
B8: 4H6-H4K4-IgG4 (antibody, V domains shown)
VH: EVQLQESGPGLVKPSQTLSLTCTVSGDSVSSGYWNWIRKFPGKKLEYMGFISYSGSTYYTPSLKSRITISRDTSKNQFSLKLSSVTAADTAVYFCARFRRYDDGVDYWGQGTLVTVSS
VL: DIQMTQSPSAMSASVGDRVTLTCRASHEISGYLSWIQQKPGGTIKRLINAASTLASGVPSRFSGSRSGTEYTLTISSLQPEDFADYYCLQYSSYPWTFGGGTKLEIK
notes: Humanized
B9: 4H6-H1K4-IgG4 (antibody, V domains shown)
VH: QVQLQESGPGLVKPSQTLSLTCTVSGDSVSSGYWNWIRKHPGKKLEWIGFISYSGSTYYTPSLKSRVTISRDTSKNQFSLKLSSVTAADTAVYYCARFRRYDDGVDYWGQGTLVTVSS
VL: DIQMTQSPSAMSASVGDRVTLTCRASHEISGYLSWIQQKPGGTIKRLINAASTLASGVPSRFSGSRSGTEYTLTISSLQPEDFADYYCLQYSSYPWTFGGGTKLEIK
notes: Humanized
B10: 4H6-H2K1-IgG4 (antibody, V domains shown)
VH: EVQLQESGPGLVKPSQTLSLTCTVSGDSVSSGYWNWIRKHPGKKLEWIGFISYSGSTYYTPSLKSRVTISRDTSKNQFSLKLSSVTAADTAVYYCARFRRYDDGVDYWGQGTLVTVSS
VL: DIQMTQSPSAMSASVGDRVTITCRASHEISGYLSWFQQKPGGVIKRLINAASTLASGVPSRFSGSRSGTEFTLTISSLQPEDFATYYCLQYSSYPWTFGGGTKLEIK
notes: Humanized
B11: 4H6-H3K3-IgG4 (antibody, V domains shown)
VH: EVQLQESGPGLVKPSQTLSLTCTVSGDSVSSGYWNWIRKHPGKKLEYMGFISYSGSTYYTPSLKSRITISRDTSKNQFSLKLSSVTAADTAVYFCARFRRYDDGVDYWGQGTLVTVSS
VL: DIQMTQSPSAMSASVGDRVTITCRASHEISGYLSWIQQKPGGTIKRLINAASTLASGVPSRFSGSRSGTEYTLTISSLQPEDFADYYCLQYSSYPWTFGGGTKLEIK
notes: Humanized
B12: 4H6-H2K4-IgG4 (antibody, V domains shown)
VH: EVQLQESGPGLVKPSQTLSLTCTVSGDSVSSGYWNWIRKHPGKKLEWIGFISYSGSTYYTPSLKSRVTISRDTSKNQFSLKLSSVTAADTAVYYCARFRRYDDGVDYWGQGTLVTVSS
VL: DIQMTQSPSAMSASVGDRVTLTCRASHEISGYLSWIQQKPGGTIKRLINAASTLASGVPSRFSGSRSGTEYTLTISSLQPEDFADYYCLQYSSYPWTFGGGTKLEIK
notes: Humanized
B13: 4H6-H2K3-IgG4 (antibody, V domains shown)
VH: EVQLQESGPGLVKPSQTLSLTCTVSGDSVSSGYWNWIRKHPGKKLEWIGFISYSGSTYYTPSLKSRVTISRDTSKNQFSLKLSSVTAADTAVYYCARFRRYDDGVDYWGQGTLVTVSS
VL: DIQMTQSPSAMSASVGDRVTITCRASHEISGYLSWIQQKPGGTIKRLINAASTLASGVPSRFSGSRSGTEYTLTISSLQPEDFADYYCLQYSSYPWTFGGGTKLEIK
notes: Humanized
B14: 4H6-H4K3-IgG4 (antibody, V domains shown)
VH: EVQLQESGPGLVKPSQTLSLTCTVSGDSVSSGYWNWIRKFPGKKLEYMGFISYSGSTYYTPSLKSRITISRDTSKNQFSLKLSSVTAADTAVYFCARFRRYDDGVDYWGQGTLVTVSS
VL: DIQMTQSPSAMSASVGDRVTITCRASHEISGYLSWIQQKPGGTIKRLINAASTLASGVPSRFSGSRSGTEYTLTISSLQPEDFADYYCLQYSSYPWTFGGGTKLEIK
notes: Humanized
B15: 4H6-H3K4-IgG4 (antibody, V domains shown)
VH: EVQLQESGPGLVKPSQTLSLTCTVSGDSVSSGYWNWIRKHPGKKLEYMGFISYSGSTYYTPSLKSRITISRDTSKNQFSLKLSSVTAADTAVYFCARFRRYDDGVDYWGQGTLVTVSS
VL: DIQMTQSPSAMSASVGDRVTLTCRASHEISGYLSWIQQKPGGTIKRLINAASTLASGVPSRFSGSRSGTEYTLTISSLQPEDFADYYCLQYSSYPWTFGGGTKLEIK
notes: Humanized
B16: 4H6-H4K1-IgG4 (antibody, V domains shown)
VH: EVQLQESGPGLVKPSQTLSLTCTVSGDSVSSGYWNWIRKFPGKKLEYMGFISYSGSTYYTPSLKSRITISRDTSKNQFSLKLSSVTAADTAVYFCARFRRYDDGVDYWGQGTLVTVSS
VL: DIQMTQSPSAMSASVGDRVTITCRASHEISGYLSWFQQKPGGVIKRLINAASTLASGVPSRFSGSRSGTEFTLTISSLQPEDFATYYCLQYSSYPWTFGGGTKLEIK
notes: Humanized
B17: 4H6-H3K1-IgG4 (antibody, V domains shown)
VH: EVQLQESGPGLVKPSQTLSLTCTVSGDSVSSGYWNWIRKHPGKKLEYMGFISYSGSTYYTPSLKSRITISRDTSKNQFSLKLSSVTAADTAVYFCARFRRYDDGVDYWGQGTLVTVSS
VL: DIQMTQSPSAMSASVGDRVTITCRASHEISGYLSWFQQKPGGVIKRLINAASTLASGVPSRFSGSRSGTEFTLTISSLQPEDFATYYCLQYSSYPWTFGGGTKLEIK
notes: Humanized
B18: 4H6-H1K3-IgG4 (antibody, V domains shown)
VH: QVQLQESGPGLVKPSQTLSLTCTVSGDSVSSGYWNWIRKHPGKKLEWIGFISYSGSTYYTPSLKSRVTISRDTSKNQFSLKLSSVTAADTAVYYCARFRRYDDGVDYWGQGTLVTVSS
VL: DIQMTQSPSAMSASVGDRVTITCRASHEISGYLSWIQQKPGGTIKRLINAASTLASGVPSRFSGSRSGTEYTLTISSLQPEDFADYYCLQYSSYPWTFGGGTKLEIK
notes: Humanized
B19: 4H6-H1K1-IgG4 (antibody, V domains shown)
VH: QVQLQESGPGLVKPSQTLSLTCTVSGDSVSSGYWNWIRKHPGKKLEWIGFISYSGSTYYTPSLKSRVTISRDTSKNQFSLKLSSVTAADTAVYYCARFRRYDDGVDYWGQGTLVTVSS
VL: DIQMTQSPSAMSASVGDRVTITCRASHEISGYLSWFQQKPGGVIKRLINAASTLASGVPSRFSGSRSGTEFTLTISSLQPEDFATYYCLQYSSYPWTFGGGTKLEIK
notes: Humanized

Molecular target: T1, Histidine-tagged human CD40 protein (hCD40-His) (human, UniProt P25942 21-193)
T1 construct: not shown: histidine tag
T1 sequence (P25942 21-193 limits assumed): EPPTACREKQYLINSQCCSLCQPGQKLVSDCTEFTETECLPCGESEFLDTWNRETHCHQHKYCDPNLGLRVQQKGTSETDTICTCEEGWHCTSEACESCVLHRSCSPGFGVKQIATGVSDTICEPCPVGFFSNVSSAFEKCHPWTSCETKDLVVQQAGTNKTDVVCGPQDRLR
Assay: SPR, Biacore T200; antibody on Protein A chip, hCD40-His injected; 1:1 fit
Experimental: The binding affinity of the anti-hCD40 antibodies were measured using surface plasmon resonance (SPR) using Biacore (Biacore, INC, Piscataway N.J.) T200 biosensor equipped with pre-immobilized Protein A sensor chips.
Anti-hCD40 antibodies were collected by transfecting CHO-S cells and then purified. The antibodies (1 μg/mL) were injected into Biacore T200 biosensor at 10 μL/min for about 24-33 seconds to achieve to a desired protein density (about 44-57 response units (RU)). […] Dissociation was monitored for 300 seconds. The chip was regenerated after the last injection of each titration with Glycine (pH 2.0, 30 μL/min for 12 seconds).

Binder	Kd [nM]	koff [s⁻¹]	kon [M⁻¹ s⁻¹]
B1	194	0.0292	150000
B2	182	0.0313	172000
B3	535	0.0391	73100
B4	291	0.0514	177000
B5	594	0.0491	82800
B6	138	0.057	414000
B7	164	0.0632	386000
B8	88.9	0.0278	312000
B9	465	0.0695	149000
B10	447	0.227	507000
B11	91.6	0.0286	312000
B12	378	0.0742	196000
B13	253	0.0659	260000
B14	78.8	0.0257	327000
B15	94.8	0.0282	298000
B16	145	0.0269	185000
B17	413	0.0342	82700
B18	229	0.0554	242000
B19	7720	0.167	21700
